biological target: T1, hK1 (human tissue kallikrein 1), recombinant (human, UniProt P06870 25-262); assay: SPR
T1 construct: Expressed in P. pastoris from KLK1 cDNA and purified; enzymatically active; also called KLK1; Recombinant (Pichia) Kallikrein

Row | Binder | Kd [nM] | koff [s⁻¹] | kon [M⁻¹ s⁻¹]
1 | M0105-F02 (Fab, V domains shown) VH: EVQLLESGGGLVQPGGSLRLSCAASGFTFSRYWMAWVRQAPGKGLEWVSSIGPSGGSTKYADSVKGRFTISRDNSKNTLYLQMNSLRAEDTAVYYCARTARWLSFDYWGQGTLVTVSS VL: DIQMTQSPSTLSASVGDRVTITCRASQSISSWLAWYQQKPGEAPKLLIYAASSLRNGVPSRFIGSGSGTDFTLTISSLQPEDFATYYCQQSYSTPPTFGGGTKVEIKR | 10.9 | 0.0103 | 947000
2 | M0112-C02 (Fab, V domains shown) VH: EVQLLESGGGLVQPGGSLRLSCAASGFTFSNYYMLWVRQAPGKGLEWVSYIRSSGGSTRYADSVKGRFTISRDNSKNTLYLQMNSLRAEDTAVYYCAKPTVDGAFDYWGQGTLVTVSS VL: DIQMTQSPGTLSLSPGDRATLSCRASQSVSSNYLAWYQQKPGQAPRLLIYGASSRATGIPDRFSGSGSGTDFTLTISRLEPEDFGVYYCQQFGSSLFTFGPGTKVNIKR | 10.9 | 0.00523 | 481000
3 | M0122-H04 (Fab, V domains shown) VH: EVQLLESGGGLVQPGGSLRLSCAASGFTFSRYAMAWVRQAPGKGLEWVSSIGSSGGVTKYADSVKGRFTISRDNSKNTLYLQMNSLRAEDTAVYYCAAPRGRYYYDSSGYYYGGVFDYWGQGTLVTVSS VL: AQYELTQPRSVSGSPGQSVTISCTGTSSDVGGFNYVSWYQQHPGKAPKLMIYDVSKRPSGVPDRFSGSKSGTTASLTISGLQADDEADYYCCSYTGNYTYVFGTGTKVTVLG | 11.8 | 0.000802 | 68200
4 | M0099-C12 (Fab, V domains shown) VH: EVQLLESGGGLVQPGGSLRLSCAASGFTFSRYAMHWVRQAPGKGLEWVSSIWPSGGATFYADSVKGRFTISRDNSKNTLYLQMNSLRAEDTAVYYCATSPTLNAFHIWGQGTMVTVSS VL: AQSVLTQPASVSGSPGQSITISCTGTTSDVGGYKYVSWYQHHPGKVPKLIIYEVNHRPSGVSHRFSGSKSGNTASLIISALQAEDEADYYCYSYTSDSTPYVFGTGTKVTVL | 13 | 0.00461 | 354000
5 | M0139-A04 (Fab, V domains shown) VH: EVQLLESGGGLVQPGGSLRLSCAASGFTFSHYPMTWVRQAPGKGLEWVSSIRPSGGNTGYADSVKGRFTISRDNSKNTLYLQMNSLRAEDTAVYYCARLTGYSSGWFWAYGMDVWGQGTTVTVSS VL: DIQMTQSPGTLSLSPGDRATLSCRASQSVSSSYLAWYQQKAGQAPRLLIYGAASRATGIPDRFSGSGSGTDFTLTISRLEREDFAVYYCQQYGSSPLITFGQGTRLEIKR | 12.2 | 0.00503 | 411000
6 | M0109-E08 (Fab, V domains shown) VH: EVQLLESGGGLVQPGGSLRLSCAASGFTFSHYTMLWVRQAPGKGLEWVSSIYSSGGSTYYADSVKGRFTISRDNSKNTLYLQMNSLRAEDTAVYYCARVGVWYGMDVWGQGTTVTVSS VL: not shown | 10.1 | 0.00889 | 880000
7 | M0129-B09 (Fab, V domains shown) VH: EVQLLESGGGLVQPGGSLRLSCAASGFTFSRYWMHWVRQAPGKGLEWVSSIGPSGGVTKYADSVKGRFTISRDNSKNTLYLQMNSLRAEDTAVYYCARHGSWGGMDVWGQGTTVTVSS VL: DIQMTQSPSFLSASVGDRVTITCRASQGISSYLAWYQQKPGKAPKLLIYAASTLQSGVPSRFSGSGSGTEFTLTISSLQPEDFATYYCQQLNSYPRTFGQGTKVEIKR | 12.7 | 0.022 | 1.73e+06
8 | M0103-F07 (Fab, V domains shown) VH: EVQLLESGGGLVQPGGSLRLSCAASGFTFSLYAMHWVRQAPGKGLEWVSSIRPSGGLTKYADSVKGRFTISRDNSKNTLYLQMNSLRAEDTAVYYCARVGVWYGMDVWGQGTTVTVSS VL: AQSALTQPASVSGSPGQSITISCTGTSNDIGRTNYVSWYRQDPGRAPKLILFEVSNRPSGISNRFSASKSGSTASLTISGLQADDESDYYCSSCTTAPVCVFGNGTRVTVLG | 13.2 | 0.00743 | 564000
9 | M0111-B02 (Fab, V domains shown) VH: EVQLLESGGGLVQPGGSLRLSCAASGFTFSKYWMAWVRQAPGKGLEWVSVIYPSGGQTKYADSVKGRFTISRDNSKNTLYLQMNSLRAEDTAVYYCTLMRYGDRFDYWGQGTLVTVSS VL: AQYELTQDPAVSVALGQTVRITCQGDSLRSYYASWYQQKPGQAPVLVIYSKSNRPSGIPDRFSGSSSGSTASLTITGAQAEDEADYYCNSRDSSGNHLVFGGGTKLTVL | 12.7 | 1170 | –
10 | M0119-B09 (Fab, V domains shown) VH: EVQLLESGGGLVQPGGSLRLSCAASGFTFSWYWMYWVRQAPGKGLEWVSVIGSSGGVTKYADSVKGRFTISRDNSKNTLYLQMNSLRAEDTATYYCARGPYRGYFDYWGQGTLVTVSS VL: DIQMTQSPATLSVSPGEGATLSCRASQSVGNSLAWYQQKPGQAPRVLVYGASTRASGIPARFSGSGSVTEFTLTISSLQSEDFAVYYCQEYNKWPITFGQGTRLERKR | 13.7 | 0.00483 | 352000
11 | M0099-E11 (Fab, V domains shown) VH: EVQLLESGGGLVQPGGSLRLSCAASGFTFSHYTMVWVRQAPGKGLEWVSSIYSSGGRTNYADSVKGRFTISRDNSKNTLYLQMNSLRAEDTAVYYCARIVVVPSAQFYFYYGMDVWGQGTTVTVSS VL: DIQMTQSPSTLSASVGDRVTITCRASQSISNWLAWYQQKPGRAPKLLIYKASTLESGVPSRFSGSGSGTEFTLTISSLQPDDFATYYCQHYNSYSLFGQGTKLEIKR | 13.2 | 0.00796 | 605000
12 | M0103-A03 (Fab, V domains shown) VH: EVQLLESGGGLVQPGGSLRLSCAASGFTFSHYPMSWVRQAPGKGLEWVSYIRSGGYTTYADSVKGRFTISRDNSKNTLYLQMNSLRAEDTAVYYCARERVFCSGGRCGSYFDYWGQGTLVTVSS VL: DIQMTQSPSSVSASVGDRVTITCRASQDVRRFLAWYQQKPGKAPKLLIYAASSLQSGVPSRFSGSGSGTDFTLTISSLQPEDFATYYCQQANSFPITFGQGTRLEIKR | 10.6 | 0.00988 | 931000
13 | M0138-B06 (Fab, V domains shown) VH: EVQLLESGGGLVQPGGSLRLSCAASGFTFSPYTMSWVRQAPGKGLEWVSGIYPSGGETWYADSVKGRFTISRDNSKNTLYLQMNSLRAEDTAVYYCAKNINLRYDILTGYFDFWGQGTMVTVSS VL: DIQMTQSPSSVSASVGDRVTITCRASQGISSWLAWYQQKPGKAPKLLIYAASSLQSGVPSRFSGSGSGTDFTLTISSLQPEDFATYYCQQANSFPLTFGGGTKVEIKR | 12.5 | 0.000829 | 66400
14 | M0099-A09 (Fab, V domains shown) VH: EVQLLESGGGLVQPGGSLRLSCAASGFTFSRYAMFWVRQAPGKGLEWVSSISPSGGKTRYADSVKGRFTISRDNSKNTLYLQMNSLRAEDTAVYYCARGGGTALDYWGQGTLVTVSS VL: DIQMTQSPGTLSLSPGERATLSCRASQSVYSSYLAWYQQKPGQAPRLLIYAASNRAIGIPDRFSGSGSGTDFTLTISSMQPEDFATYYCQQSYSTPRFGQGTKLEIKR | 10.7 | 0.00285 | 267000
15 | M0108-C10 (Fab, V domains shown) VH: EVQLLESGGGLVQPGGSLRLSCAASGFTFSRYVMAWVRQAPGKGLEWVSVIRPSGGKTLYADSVKGRFTISRDNSKNTLYLQMNSLRAEDTAVYYCARVAGRVGVPATKKNWFDPWGQGTLVTVSS VL: AQSVLTQPASVSGSPGQSITISCTGTSSDVGGYNYVSWYQQHPGQPPKLIIYEVSNRASGVSNRFSGSKFGNTASLTISGLQSEDEADYHCSSYTSSTTLLFGGGTRLTVLG | 12.2 | 0.00431 | 353000
16 | M0102-A04 (Fab, V domains shown) VH: EVQLLESGGGLVQPGGSLRLSCAASGFTFSHYVMNWVRQAPGKGLEWVSRIYPSGGVTVYADSVKGRFTISRDNSKNTLYLQMNSLRAEDTAVYYCARGYGMDVWGQGTMVTVSS VL: AQSELTQPPSASGTPGQRVTISCSGSSSNIGSNYVYWYQQYPGTVPKLLIHSNNQRPSGVPDRFSGPKSGTSASLAISGLRSEDEADYYCATWDNSLSAWVFGGGTKLTVLR | 13.3 | 0.00435 | 327000
17 | M0125-C04 (Fab, V domains shown) VH: EVQLLESGGGLVQPGGSLRLSCAASGFTFSHYVMDWVRQAPGKGLEWVSSIYPSGGWTRYADSVKGRFTISRDNSRNTLYLQMNSLRAEDTAVYYCARRGQWLVLDYWGQGTLVTVSS VL: AQSELTQPASVSGSPGQSITISCAGTSSDLGGYDYVSWYQQYPGKAPKLIIYQVGRRPSGVSNRFSGSKSGNTASLTISGLQTEDEADYYCSSYTSSRTRVFGGGTRVTVLG | 11.2 | 0.00536 | 478000
18 | M0092-B12 (Fab, V domains shown) VH: EVQLLESGGGLVQPGGSLRLSCAASGFTFSQYLMAWVRQAPGKGLEWVSSIYPSGGNTNYADSVKGRFTISRDNSKNTLYLQMNSLRAEDTAVYYCARDRSIVPYSSSWYMPRDYYYGMDVWGQGTTVTVSS VL: DIQMTQSPSSLSASVGDRVTITCRASQGISNYLAWYQQKPGKVPKLLIYAASTLQSGVPSRFSGSGSGTDFTLTISSLQPEDFATYYCQQSYSTPYTFGQGTKLEVRR | 12.1 | 0.00171 | 141000
19 | M0096-E11 (Fab, V domains shown) VH: EVQLLESGGGLVQPGGSLRLSCAASGFTFSHYLMYWVRQAPGKGLEWVSSIYPSGGFTAYADSVKGRFTISRDNSKNTLYLQMNSLRAEDTAVYYCARRGVYGTFDIWGQGTMVTVSS VL: DIQMTQSPLSLSASVGDRVTMTCRASQTISSYLNWYQQKPGKAPKLLIYTTSSLQSGVPSRFSGSGSGTEFTLTISSLQPEDFATYYCQQSHSSPTFGGGTKVEIKR | 10.1 | 0.00836 | 827000
20 | M0104-B03 (Fab, V domains shown) VH: EVQLLESGGGLVQPGGSLRLSCAASGFTFSNYTMFWVRQAPGKGLEWVSSIYPSGGITRYADSVKGRFTISRDNSKNTLYLQMNSLRAEDTAVYYCARVSFWNAFDIWGQGTMVTVSS VL: not shown | 10.1 | 0.00711 | 707000
